Experimental data: paper PMC3903132

Biological target: PSI^PsaJF, phage-mimetic photosystem I complex with the fused PsaJF subunit (one monomer of the trimer) (Synechocystis sp. PCC 6803) (UniProt P29254)
Assay: crystal structure; PSI^PsaJF trimer purified from Synechocystis membranes, 3.8 Å, space group P21, three monomers in the asymmetric unit

PSI^PsaJF, phage-mimetic photosystem I complex with the fused PsaJF subunit (one monomer of the trimer) (from UniProt P29254 1-751; P29255 1-731; P32422 1-81; P19569 1-141; P12975 1-74; Q55329 1-40; P29256 84-165; Q55330 1-40; P72712 1-86; P37277 1-157; P72986 1-31)
stoichiometry N: 3
